# In patent EP4339209A1 (MediMabbio Inc., dated 2024):
# Numbering of substitutions follows the chain as printed.
# B1: anti-GITR 51B VH0/VL0 chimeric antibody (human IgG1, kappa) (antibody, V domains shown)
# VH: QVQLQQSGAELMKPGASVKLSCKTTGYRFTGYWIEWVKQRPGHGLEWIGEILPGSGATYYSENFKGKATFTADTSSNTAYMQVSSLTTGDSAIYYCARKGGYYAMDYWGQGTSVTVSS
# VL: QIVLTQSPAIMSASLGERVTMTCTASSSVSSSYFHWYQQKPGSSPKLWIYSTSNLASGVPARFSGSGSGTSYSLTVSSLEAEDAATYYCHLYHRSPRTFGGGTTLDIKR
# notes: Chimeric antibody; also called VH0/Vk0; 51B VH0/Vk0
# B2: anti-GITR 51B VH4/VL4 humanized antibody (human IgG1, kappa) (antibody, V domains shown)
# VH: QVQLVQSGAEVKKPGASVKVSCKTTGYRFTGYWINWVRQPPGKGLEWIGEILPGSGATYYSENFKGKVTITADTSTDTAYMELSSLRSEDTAIYYCARKGGYYAMDYWGQGTLVTVSS
# VL: EIVLTQSPATLSLSPGERATLSCTASSSVSSSYFHWYQQKPGKAPKLWIYSTSNLQSGVPDRFSGSGSGTDYTLTISSLQAEDVATYYCHLYHRSPRTFGGGTKVEIKR
# B3: anti-GITR 51B VH1/VL0 antibody (human IgG1, kappa) (antibody, V domains shown)
# VH: B2 VH with V11L, V20L, N35E, V68A, D77N, L83V, E89G, T91S, L113S
# VL: B1 VL
# B4: anti-GITR 51B VH4/VL5 humanized antibody (human IgG1, kappa) (antibody, V domains shown)
# VH: B2 VH
# VL: B2 VL with Q56E
# B5: anti-GITR 51B VH5/VL1 humanized antibody (human IgG1, kappa) (antibody, V domains shown)
# VH: B2 VH with N35D
# VL: B1 VL with T22S, S44A, A61D, S71D, S73T, E80Q, A84V, L105V
# B6: anti-GITR 51B VH5/VL4 humanized antibody (human IgG1, kappa) (antibody, V domains shown)
# VH: B2 VH with N35D
# VL: B2 VL
# B7: anti-GITR 51B VH5/VL5 humanized antibody (human IgG1, kappa) (antibody, V domains shown)
# VH: B2 VH with N35D
# VL: B2 VL with Q56E
# B8: anti-GITR 51B VH3/VL1 humanized antibody (human IgG1, kappa) (antibody, V domains shown)
# VH: B2 VH with N35E
# VL: B1 VL with T22S, S44A, A61D, S71D, S73T, E80Q, A84V, L105V
# B9: anti-GITR 51B VH3/VL4 humanized antibody (human IgG1, kappa) (antibody, V domains shown)
# VH: B2 VH with N35E
# VL: B2 VL
# notes: also called VH3/Vk4; 51B VH3/Vk4
# B10: anti-GITR 51B VH1/VL1 humanized antibody (human IgG1, kappa) (antibody, V domains shown)
# VH: B2 VH with V11L, V20L, N35E, V68A, D77N, L83V, E89G, T91S, L113S
# VL: B1 VL with T22S, S44A, A61D, S71D, S73T, E80Q, A84V, L105V
# B11: anti-GITR 51B VH3/VL5 humanized antibody (human IgG1, kappa) (antibody, V domains shown)
# VH: B2 VH with N35E
# VL: B2 VL with Q56E
# B12: anti-GITR 51B VH1/VL4 humanized antibody (human IgG1, kappa) (antibody, V domains shown)
# VH: B2 VH with V11L, V20L, N35E, V68A, D77N, L83V, E89G, T91S, L113S
# VL: B2 VL
# B13: anti-GITR 51B VH1/VL5 humanized antibody (human IgG1, kappa) (antibody, V domains shown)
# VH: B2 VH with V11L, V20L, N35E, V68A, D77N, L83V, E89G, T91S, L113S
# VL: B2 VL with Q56E
# B14: anti-GITR 51B VH2/VL1 humanized antibody (human IgG1, kappa) (antibody, V domains shown)
# VH: B2 VH with V20L, N35E, V68A, D77N, L83V
# VL: B1 VL with T22S, S44A, A61D, S71D, S73T, E80Q, A84V, L105V
# B15: anti-GITR 51B VH2/VL4 humanized antibody (human IgG1, kappa) (antibody, V domains shown)
# VH: B2 VH with V20L, N35E, V68A, D77N, L83V
# VL: B2 VL
# B16: anti-GITR 51B VH0/VL1 antibody (human IgG1, kappa) (antibody, V domains shown)
# VH: B1 VH
# VL: B1 VL with T22S, S44A, A61D, S71D, S73T, E80Q, A84V, L105V
# B17: anti-GITR 51B VH2/VL5 humanized antibody (human IgG1, kappa) (antibody, V domains shown)
# VH: B2 VH with V20L, N35E, V68A, D77N, L83V
# VL: B2 VL with Q56E
# B18: anti-GITR 51B VH4/VL1 humanized antibody (human IgG1, kappa) (antibody, V domains shown)
# VH: B2 VH
# VL: B1 VL with T22S, S44A, A61D, S71D, S73T, E80Q, A84V, L105V
# B19: 51B antibody (as used in the epitope mapping, Example 1.7) (antibody, V domains shown)
# VH: B1 VH
# VL: QIVLTQSPAIMSASLGERVTMTCTASSSVSSSYFHWYQQKPGSSPKLWIYSTSNLASGVPARFSGSGSGTSYSLTVSSLEAEDAATYYCHLYHRSPRTFGGGTTLDIK
# notes: also called anti-GITR monoclonal antibody (51B clone)
# Biological target: recombinant human GITR (Cat No. 13643-H08H, Lot No. LC12JA2509, Sino Biological) (human) (UniProt Q9Y5U5)
# Experiment: SPR Biacore 8K, single-cycle kinetics, IgG in supernatant captured on Protein A, GITR as analyte
Binder,Kd,Relative KD (fold vs VH0/VL0),koff,kon
B1,0.566 nM,1,0.000334 s⁻¹,590000 M⁻¹ s⁻¹
B2,0.987 nM,1.7,0.00053 s⁻¹,537000 M⁻¹ s⁻¹
B3,1.08 nM,1.9,0.000654 s⁻¹,603000 M⁻¹ s⁻¹
B4,1.26 nM,2.2,0.000599 s⁻¹,474000 M⁻¹ s⁻¹
B5,1.94 nM,3.4,0.000742 s⁻¹,382000 M⁻¹ s⁻¹
B6,1.37 nM,2.4,0.00149 s⁻¹,1.08e+06 M⁻¹ s⁻¹
B7,3.32 nM,5.9,0.000975 s⁻¹,294000 M⁻¹ s⁻¹
B8,0.693 nM,1.2,0.000543 s⁻¹,784000 M⁻¹ s⁻¹
B9,0.758 nM,1.3,0.000467 s⁻¹,616000 M⁻¹ s⁻¹
B10,1.32 nM,2.3,0.000949 s⁻¹,721000 M⁻¹ s⁻¹
B11,0.916 nM,1.6,0.000507 s⁻¹,554000 M⁻¹ s⁻¹
B12,1.31 nM,2.3,0.000616 s⁻¹,469000 M⁻¹ s⁻¹
B13,1.41 nM,2.5,0.000628 s⁻¹,445000 M⁻¹ s⁻¹
B14,1.1 nM,1.9,0.000734 s⁻¹,665000 M⁻¹ s⁻¹
B15,1.15 nM,2,0.000577 s⁻¹,502000 M⁻¹ s⁻¹
B16,0.527 nM,0.9,0.000338 s⁻¹,642000 M⁻¹ s⁻¹
B17,1.33 nM,2.3,0.000635 s⁻¹,477000 M⁻¹ s⁻¹
B18,1.05 nM,1.9,0.00066 s⁻¹,627000 M⁻¹ s⁻¹

# Biological target: T1, human GITR expressed on human primary immune cells (T cells, NK cells, NKT cells of PBMC) (human, UniProt Q9Y5U5 26-241)
# T1 construct: Native GITR of donor PBMC; also called hGITR in human primary immune cells; GITR on the surface of immune cells
# T1 sequence: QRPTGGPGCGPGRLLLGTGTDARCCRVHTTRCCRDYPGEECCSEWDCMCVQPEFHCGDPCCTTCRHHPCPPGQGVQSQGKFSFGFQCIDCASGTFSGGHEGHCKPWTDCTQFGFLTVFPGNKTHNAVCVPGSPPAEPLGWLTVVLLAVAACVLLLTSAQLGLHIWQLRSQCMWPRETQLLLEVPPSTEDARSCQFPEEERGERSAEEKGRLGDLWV
# Experiment: flow cytometry, AF488-labelled antibody on activated human PBMC
row,Binder,binding result
1,B1,binds
2,B9,binds

# Biological target: recombinant human GITR (Cat No. 13643-H08H, Lot No. LC12JA2509, Sino Biological) (human) (UniProt Q9Y5U5)
# Experiment: SPR Biacore 8K, multi-cycle kinetics, purified IgG captured on Protein A, GITR as analyte
Binder,Kd,Relative KD (fold vs VH0/VL0),koff,kon
B1,0.57 nM,1,0.000314 s⁻¹,552000 M⁻¹ s⁻¹
B2,0.829 nM,1.45,0.000488 s⁻¹,590000 M⁻¹ s⁻¹
B8,0.606 nM,1.06,0.000482 s⁻¹,796000 M⁻¹ s⁻¹
B9,0.675 nM,1.19,0.00043 s⁻¹,636000 M⁻¹ s⁻¹
B11,0.778 nM,1.37,0.000456 s⁻¹,586000 M⁻¹ s⁻¹

# Biological target: T2, hGITR (including His tag; Cat. GIR-H5228, Acrobiosystems) (human, UniProt Q9Y5U5 26-162)
# T2 construct: Bought protein; not shown: His tag
# T2 sequence: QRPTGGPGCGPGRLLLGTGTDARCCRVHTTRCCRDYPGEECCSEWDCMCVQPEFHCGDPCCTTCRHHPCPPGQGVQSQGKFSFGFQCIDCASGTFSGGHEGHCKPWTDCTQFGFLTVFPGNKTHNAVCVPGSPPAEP
# Experiment: DSS cross-linking of the GITR/51B complex, nLC-orbitrap MS/MS
row,Binder,binding result
1,B19,binds
